The values that follow come from US20180271975A1 (MODERNATX, published 2018).

This test addresses T1, hCMV glycoprotein H (gH) (human cytomegalovirus (Human …, UniProt Q6SW67 24-742)).
T1 construct: also called envelope glycoprotein H
T1 sequence: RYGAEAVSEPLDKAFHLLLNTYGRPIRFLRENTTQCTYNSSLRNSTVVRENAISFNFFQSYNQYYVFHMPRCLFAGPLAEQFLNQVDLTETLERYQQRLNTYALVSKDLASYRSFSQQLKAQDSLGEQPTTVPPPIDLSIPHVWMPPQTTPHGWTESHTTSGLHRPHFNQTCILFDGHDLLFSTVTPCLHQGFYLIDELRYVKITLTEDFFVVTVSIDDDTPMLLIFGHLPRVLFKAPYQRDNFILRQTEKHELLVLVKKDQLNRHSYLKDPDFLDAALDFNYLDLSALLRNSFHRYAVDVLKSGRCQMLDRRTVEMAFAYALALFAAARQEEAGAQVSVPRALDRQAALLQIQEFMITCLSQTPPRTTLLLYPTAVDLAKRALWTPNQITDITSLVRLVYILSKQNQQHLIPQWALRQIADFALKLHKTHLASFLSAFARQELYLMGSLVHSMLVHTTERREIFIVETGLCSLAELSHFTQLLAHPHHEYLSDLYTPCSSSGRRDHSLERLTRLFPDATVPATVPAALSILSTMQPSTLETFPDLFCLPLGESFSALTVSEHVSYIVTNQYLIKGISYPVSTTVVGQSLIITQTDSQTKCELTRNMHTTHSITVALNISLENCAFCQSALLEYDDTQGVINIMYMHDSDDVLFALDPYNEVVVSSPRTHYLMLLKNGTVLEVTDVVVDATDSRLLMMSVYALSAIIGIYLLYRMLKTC
The test is described as follows: co-expression in HeLa cells, surface gH read by FACS with 3G16. On the technique in general: Flow cytometry measures light scatter and fluorescence of single cells or particles in a stream.

B1: hCMV glycoprotein L (gL) (other)
chain: AAVSVAPTAAEKVPAECPELTRRCLLGEVFEGDKYESWLRPLVNVTGRDGPLSQLIRYRPVTPEAANSVLLDEAFLDTLALLYNNPDQLRALLTLLSSDTAPRWMTVMRGYSECGDGSPAVYTCVDDLCRGYDLTRLSYGRSIFTEHVLGFELVPPSLFNVVVAIRNEATRTNRAVRLPVSTAAAPEGITLFYGLYNAVKEFCLRHQLDPPLLRHLDKYYAGLPPELKQTRVNLPAHSRYGPQAVDAR
With B1, the binding result is on record as “binds”.
